In paper PMC5760045, “The centrosomin CM2 domain is a multi-functional binding domain with distinct cell cycle roles” (PLoS ONE, 2018):
One block for each molecule: values may come before it.

Assays:
[1] = target: centrosomin CM2 aa1090-1148 (monomeric CM2) (Drosophila melanogaster) (UniProt P54623); assay: NMR titration; 2D [15N,1H]-HSQC of 100μM 15N labeled monomeric CM2 with 18μM CaM; 2mM EGTA added in place of 2mM CaCl2; 300K; 20mM PIPES pH 6.8, 140mM NaCl; apparent affinity
[2] = target: CM2 Δ1130–1148 (Drosophila melanogaster) (UniProt P54623); assay: SEC-MALS; KW-802.5 size exclusion column with inline MALS and refractive index detectors; 50mM HEPES pH 7.0, 200mM NaCl, 1mM DTT; dimer constructs also at submicromolar concentrations (1μM and 9μM for aa1074-1148)
[3] = target: the molecule itself; assay: as above
[4] = target: T1, GB1-CNNLZ (CNN aa490-567 fused to the GB1 solubility tag) (Drosophila melanogaster, UniProt P54623-2 490-567); assay: NMR titration; 2D [15N,1H]-HSQC of 100μM 15N labeled CM2 with unlabeled partner added; 300K; 20mM PIPES pH 6.8, 140mM NaCl, 0.01% NaN3, 5% D2O, 2mM CaCl2; 800 MHz; details: both partners purified
T1 construct: centrosomin (CNN), Drosophila melanogaster, residues 490-567 with the leucine zipper, the same fragment as in the crystal structure 5MWE; The introduction gives aa490-544 for CNNLZ of Feng et al; the results give aa490-567 for the fragment used here; also called GB1-CnnMD; source: E. coli, purified (NiNTA, size exclusion)
T1 sequence (looked up): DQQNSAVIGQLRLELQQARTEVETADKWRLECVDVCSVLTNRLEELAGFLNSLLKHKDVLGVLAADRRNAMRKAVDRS

reduction of the apparent affinity without calcium (2mM EGTA) against 2mM CaCl2 [1]: 50 to 70%
Molecule: calmodulin (from UniProt P62152 1-149) (natural protein)

binding result [4]: binds
B2: centrosomin CM2 aa1090-1148 (monomeric CM2) (domain or fragment, Drosophila melanogaster, UniProt P54623-2 1090-1148, looked up)
chain: ENAELRRKLIRTKRAFEDTYEKLRMANKAKAQVEKDIKNQILKTHNVLRNVRSNMENEL
notes: centrosomin (CNN), Drosophila melanogaster, residues 1090-1148 (start of the predicted coiled coil to the C-terminus), from cDNA LD19135; 15N-labelled (or 13C/15N) in the NMR experiments; also called CM2 monomer; truncated CM2; source: E. coli, purified (NiNTA, cation exchange; non-labeled protein also size exclusion)

Second part, the molecule before the results:

Molecule: CM2 Δ1130–1148 (from UniProt P54623-2 1-1129) (domain or fragment)
stoichiometry N [2]: 2

B1: centrosomin CM2 aa1064-1148 (longer dimeric CM2) (domain or fragment, Drosophila melanogaster, UniProt P54623-2 1064-1148, looked up)
chain: ESTSPDSKSNVATGAATVHDCAKVDLENAELRRKLIRTKRAFEDTYEKLRMANKAKAQVEKDIKNQILKTHNVLRNVRSNMENEL
notes: centrosomin (CNN), Drosophila melanogaster, residues 1064-1148, from cDNA LD19135; source: E. coli, purified (NiNTA, cation exchange, size exclusion)
stoichiometry N [3]: 2

B3: centrosomin CM2 aa1074-1148 (minimal dimeric CM2) (domain or fragment, Drosophila melanogaster, UniProt P54623-2 1074-1148, looked up)
chain: VATGAATVHDCAKVDLENAELRRKLIRTKRAFEDTYEKLRMANKAKAQVEKDIKNQILKTHNVLRNVRSNMENEL
notes: centrosomin (CNN), Drosophila melanogaster, residues 1074-1148, from cDNA LD19135; 15N-labelled in the NMR experiments; also called CM2 dimer; minimal dimer construct; source: E. coli, purified (NiNTA, cation exchange; non-labeled protein also size exclusion)
stoichiometry N [3]: 2
